{"source": "patent US9273146", "about": "(Takeda / Millennium, dated 2016)", "key": {"[1]": {"biological_target": "T1, human GCC (guanylyl cyclase C) (human, UniProt P25092 24-1073)", "T1 construct": "Target of the IHC on formalin-fixed, paraffin-embedded HEK293-GCC xenografts, GCC-transfected cell pellets and human colon tissues; also called hGCC; STAR", "T1 sequence (P25092 24-1073 limits assumed)": "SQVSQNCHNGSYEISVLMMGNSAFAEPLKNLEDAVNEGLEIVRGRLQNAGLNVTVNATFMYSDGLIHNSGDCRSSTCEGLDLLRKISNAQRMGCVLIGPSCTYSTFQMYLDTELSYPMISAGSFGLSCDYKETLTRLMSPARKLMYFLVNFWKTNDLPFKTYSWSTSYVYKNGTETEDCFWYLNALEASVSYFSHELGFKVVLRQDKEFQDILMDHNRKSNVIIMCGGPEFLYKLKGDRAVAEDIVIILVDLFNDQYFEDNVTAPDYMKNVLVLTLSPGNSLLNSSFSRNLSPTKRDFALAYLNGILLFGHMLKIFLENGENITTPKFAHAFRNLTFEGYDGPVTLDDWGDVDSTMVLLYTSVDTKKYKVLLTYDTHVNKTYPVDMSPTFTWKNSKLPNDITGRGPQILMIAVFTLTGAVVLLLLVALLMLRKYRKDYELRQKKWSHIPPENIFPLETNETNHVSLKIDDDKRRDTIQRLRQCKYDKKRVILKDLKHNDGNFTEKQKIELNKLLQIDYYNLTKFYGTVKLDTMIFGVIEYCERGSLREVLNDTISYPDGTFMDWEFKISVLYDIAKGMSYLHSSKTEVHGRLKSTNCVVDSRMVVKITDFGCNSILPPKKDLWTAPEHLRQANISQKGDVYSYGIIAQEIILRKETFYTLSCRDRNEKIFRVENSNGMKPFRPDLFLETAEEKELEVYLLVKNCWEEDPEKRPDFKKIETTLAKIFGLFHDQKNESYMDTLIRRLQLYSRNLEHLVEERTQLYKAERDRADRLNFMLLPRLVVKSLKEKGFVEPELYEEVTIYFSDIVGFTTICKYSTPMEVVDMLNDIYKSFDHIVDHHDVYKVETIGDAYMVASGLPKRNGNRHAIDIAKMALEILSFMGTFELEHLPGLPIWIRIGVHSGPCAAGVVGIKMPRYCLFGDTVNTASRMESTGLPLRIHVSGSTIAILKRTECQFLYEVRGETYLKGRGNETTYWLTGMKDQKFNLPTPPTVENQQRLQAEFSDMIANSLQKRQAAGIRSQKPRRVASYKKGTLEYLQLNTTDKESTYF", "experiment": "IHC on FFPE GCC-transfected and parental cell pellets"}, "[2]": {"biological_target": "T1, human GCC (guanylyl cyclase C)", "experiment": "automated IHC (TechMate) on FFPE colon tumors and cell pellets, antibody at 1.0 ug/ml overnight"}}, "data": [{"binder": "MIL-44-67-4 (antibody, V domains shown, Rabbit monoclonal IgG from a rabbit-rabbit hybridoma; also called MIL-44-67-4 antibody; subclone #67-4) VH: QSVEESGGRLVTPGTPLTLTCTASGSDISNYAISWVRQAPGKGLEFIGYISYGKSIYYASWAKGRFAISKTSSTTVDLEITSPTTEDTATYFCAREDSATYSPNLWGPGTLVTVSS VL: AYDMTQTPASVEVAVGGTVTIKCQASQSINTYLAWYQQKPGQRPKLLIYRASTLASGVSSRFKGSGSGTEFTLTISGVECADAATYYCQQGYSYNNLDRAFGGGTEVVVTG", "values": [{"measurement": "binding result", "setting": "[1]", "value": "binds"}]}, {"binder": "MIL-44-148-2 (antibody, V domains shown, Rabbit monoclonal IgG from a rabbit-rabbit hybridoma) VH: QSVKESGGGLFKPTDTLTLTCTVSGFSLSSHRMNWVRQTPGKGLEWIAIITHNSITYYASWAKSRSTITRNTSENTVTLKMTSLTAADTATYFCAREDSMGYYFDLWGPGTLVTISS VL: AYDMTQTPASVEVAVGGTVTIKCQASQSISNWLAWYQQKPGQSPKPLIYRASTLASGVSSRFRGSGSGTQFTLTISGVECADAATYYCQQTYTNNHLDNGFGGGTEVVVKG", "values": [{"measurement": "binding result", "setting": "[2]", "value": "binds"}]}]}
